Biological target: HA-p68 (wild type) (UniProt P17844)
Sequence of UniProt P17844 (P17844 whole entry): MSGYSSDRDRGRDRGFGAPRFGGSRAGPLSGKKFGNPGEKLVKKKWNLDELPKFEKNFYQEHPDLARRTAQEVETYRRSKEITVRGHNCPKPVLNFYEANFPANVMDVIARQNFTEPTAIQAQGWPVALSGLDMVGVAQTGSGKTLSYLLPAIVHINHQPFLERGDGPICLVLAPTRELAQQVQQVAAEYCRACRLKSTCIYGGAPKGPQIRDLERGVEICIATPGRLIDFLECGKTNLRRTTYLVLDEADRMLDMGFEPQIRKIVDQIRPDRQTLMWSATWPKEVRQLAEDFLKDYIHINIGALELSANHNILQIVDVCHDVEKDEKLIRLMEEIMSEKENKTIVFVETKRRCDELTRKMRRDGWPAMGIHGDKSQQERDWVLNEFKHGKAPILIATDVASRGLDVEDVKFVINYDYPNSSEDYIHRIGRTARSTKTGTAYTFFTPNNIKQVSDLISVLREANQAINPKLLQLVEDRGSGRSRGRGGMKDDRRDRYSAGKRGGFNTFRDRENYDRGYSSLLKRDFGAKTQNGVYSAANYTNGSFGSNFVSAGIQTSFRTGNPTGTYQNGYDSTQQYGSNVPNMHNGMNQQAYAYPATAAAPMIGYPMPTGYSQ

microtubule gliding assay, p68/Ca^2+-CaM (ATP): % of gliding microtubules (n=50): 74.2%
microtubule gliding assay, p68/Ca^2+-CaM (ATP): maximum gliding speed: 0.52 µm/min
microtubule gliding assay, p68/Ca^2+-CaM (ATP): mean gliding speed: 0.16 µm/min
Substance: Rhodamine labeled microtubule (from UniProt P02550;P02554) (complex)
